According to the RNAGym collection of RNA variant scans (doi:10.7554/elife.80360):

B1: HDV Ribozyme (parent)
chain: GGCCGGCAUGGUCCCAGCCUCCUCGCUGGCGCCGGCUGGGCAACAUUCCGAGGGGACCGUCCCCUCGGUAAUGGCGAAUGGGACCCA

Variants of: B1
Assay: self-cleavage, relative activity (ratio to wild type); higher = more cleavage; co-transcriptional

Row | Variant | self-cleavage
1 | GGCCGGCAUGGUCCCAGCCUCCUCGCUGGCGCCGGCUGGGCAACAUUCCGAGGGGACCGUCCCUUCGGUAAUGGCGAAUGGGACCGA [C64U C86G] | 0.972
2 | GGCCGGCAUGGUCCCAGCCUCCUCGCUGGCGCCGGCUGGGCAACAUUCCGAGGGGACCGUCCCUUCGGUAAUGGCGAAUGGGACCUA [C64U C86U] | 0.772
3 | GGCCGGCAUGGUCCCAGCCUCCUCGCUGGCGCCGGCUGGGCAACAUUCCGAGGGGACCGUCCCUUCGGUAAUGGAGAAUGGGACCCA [C64U C75A] | 0.242
4 | GGCCGGCAUGGUCCCAGCCUCCUCGCUGGCGCCGGCUGGGCAACAUUCCGAGGGGACCGUCCCUUCGGUAAUGGUGAAUGGGACCCA [C64U C75U] | 0.252
5 | GGCCGGCAUGGUCCCAGCCUCCUCGCUGGCGCCGGCUGGGCAACAUUCCGAGGGGACCGUCCCUUCGGUACUGGCGAAUGGGACCCA [C64U A71C] | 0.719
6 | GGCCGGCAUGGUCCCAGCCUCCUCGCUGGCGCCGGCUGGGCAACAUUCCGAGGGGACCGUCCCGUCGGUAAUGGCGAAUGGAACCCA [C64G G82A] | 0.535
7 | GGCCGGCAUGGUCCCAGCCUCCUCGCUGGCGCCGGCUGGGCAACAUUCCGAGGGGACCGUCCCUUCGGUGAUGGCGAAUGGGACCCA [C64U A70G] | 0.701
8 | GGCCGGCAUGGUCCCAGCCUCCUCGCUGGCGCCGGCUGGGCAACAUUCCGAGGGGACCGUCCCUUCGGUCAUGGCGAAUGGGACCCA [C64U A70C] | 0.956
9 | GGCCGGCAUGGUCCCAGCCUCCUCGCUGGCGCCGGCUGGGCAACAUUCCGAGGGGACCGUCCCGUCGAUAAUGGCGAAUGGGACCCA [C64G G68A] | 0.338
10 | GGCCGGCAUGGUCCCAGCCUCCUCGCUGGCGCCGGCUGGGCAACAUUCCGAGGGGACCGUCCCGUCGUUAAUGGCGAAUGGGACCCA [C64G G68U] | 0.136
11 | GGCCGGCAUGGUCCCAGCCUCCUCGCUGGCGCCGGCUGGGCAACAUUCCGAGGGGACCGUCCCUUCGGUAAUGGCGAAUGGGUCCCA [C64U A83U] | 0.361
12 | GGCCGGCAUGGUCCCAGCCUCCUCGCUGGCGCCGGCUGGGCAACAUUCCGAGGGGACCGUCCCUUCGGUAAUGGCGAAUGGGCCCCA [C64U A83C] | 0.332
13 | GGCCGGCAUGGUCCCAGCCUCCUCGCUGGCGCCGGCUGGGCAACAUUCCGAGGGGACCGUCCCUUCGGUAAUGGCAAAUGGGACCCA [C64U G76A] | 1.01
14 | GGCCGGCAUGGUCCCAGCCUCCUCGCUGGCGCCGGCUGGGCAACAUUCCGAGGGGACCGUCCCUUCGGUAAUGGCCAAUGGGACCCA [C64U G76C] | 0.905
15 | GGCCGGCAUGGUCCCAGCCUCCUCGCUGGCGCCGGCUGGGCAACAUUCCGAGGGGACCGUCCCUUCGGUAAUGGCUAAUGGGACCCA [C64U G76U] | 1.15
16 | GGCCGGCAUGGUCCCAGCCUCCUCGCUGGCGCCGGCUGGGCAACAUUCCGAGGGGACCGUCCCGUCGGUAAUGGAGAAUGGGACCCA [C64G C75A] | 0.201
17 | GGCCGGCAUGGUCCCAGCCUCCUCGCUGGCGCCGGCUGGGCAACAUUCCGAGGGGACCGUCCCGUCGGUAAUGUCGAAUGGGACCCA [C64G G74U] | 0.635
18 | GGCCGGCAUGGUCCCAGCCUCCUCGCUGGCGCCGGCUGGGCAACAUUCCGAGGGGACCGUCCCGUCGGUAAUGCCGAAUGGGACCCA [C64G G74C] | 0.244
19 | GGCCGGCAUGGUCCCAGCCUCCUCGCUGGCGCCGGCUGGGCAACAUUCCGAGGGGACCGUCCCUUCGGUAAGGGCGAAUGGGACCCA [C64U U72G] | 0.712
20 | GGCCGGCAUGGUCCCAGCCUCCUCGCUGGCGCCGGCUGGGCAACAUUCCGAGGGGACCGUCCCUUCGGUAACGGCGAAUGGGACCCA [C64U U72C] | 0.612
21 | GGCCGGCAUGGUCCCAGCCUCCUCGCUGGCGCCGGCUGGGCAACAUUCCGAGGGGACCGUCCCGUCGGUAAUGGCGAACGGGACCCA [C64G U79C] | 0.623
22 | GGCCGGCAUGGUCCCAGCCUCCUCGCUGGCGCCGGCUGGGCAACAUUCCGAGGGGACCGUCCCUGCGGUAAUGGCGAAUGGGACCCA [C64U U65G] | 0.784

Row | Variant | self-cleavage
23 | GGCCGGCAUGGUCCCAGCCUCCUCGCUGGCGCCGGCUGGGCAACAUUCCGAGGGGACCGUCCCUACGGUAAUGGCGAAUGGGACCCA [C64U U65A] | 0.984
24 | GGCCGGCAUGGUCCCAGCCUCCUCGCUGGCGCCGGCUGGGCAACAUUCCGAGGGGACCGUCCCUCCGGUAAUGGCGAAUGGGACCCA [C64U U65C] | 0.914
25 | GGCCGGCAUGGUCCCAGCCUCCUCGCUGGCGCCGGCUGGGCAACAUUCCGAGGGGACCGUCCCGUCGGUAAUGGCGAAUGGGUCCCA [C64G A83U] | 0.508
26 | GGCCGGCAUGGUCCCAGCCUCCUCGCUGGCGCCGGCUGGGCAACAUUCCGAGGGGACCGUCCCGUCGGUAAUAGCGAAUGGGACCCA [C64G G73A] | 0.594
27 | GGCCGGCAUGGUCCCAGCCUCCUCGCUGGCGCCGGCUGGGCAACAUUCCGAGGGGACCGUCCCUUCGGUAAUGGCGACUGGGACCCA [C64U A78C] | 0.138
28 | GGCCGGCAUGGUCCCAGCCUCCUCGCUGGCGCCGGCUGGGCAACAUUCCGAGGGGACCGUCCCUUCGGUAAUGGCGAGUGGGACCCA [C64U A78G] | 0.813
29 | GGCCGGCAUGGUCCCAGCCUCCUCGCUGGCGCCGGCUGGGCAACAUUCCGAGGGGACCGUCCCUUCGGUAAUGGCGAAUGGAACCCA [C64U G82A] | 0.487
30 | GGCCGGCAUGGUCCCAGCCUCCUCGCUGGCGCCGGCUGGGCAACAUUCCGAGGGGACCGUCCCUUCGGUAAUGGCGAAUGGUACCCA [C64U G82U] | 0.486
31 | GGCCGGCAUGGUCCCAGCCUCCUCGCUGGCGCCGGCUGGGCAACAUUCCGAGGGGACCGUCCCUUCGGUAAUGGCGAAUGGCACCCA [C64U G82C] | 0.208
32 | GGCCGGCAUGGUCCCAGCCUCCUCGCUGGCGCCGGCUGGGCAACAUUCCGAGGGGACCGUCCCGUCGGUAAUGGCGAAUGGGACCUA [C64G C86U] | 0.845
33 | GGCCGGCAUGGUCCCAGCCUCCUCGCUGGCGCCGGCUGGGCAACAUUCCGAGGGGACCGUCCCGUCGGUAAUGGCGAAUGGGACCGA [C64G C86G] | 0.859
34 | GGCCGGCAUGGUCCCAGCCUCCUCGCUGGCGCCGGCUGGGCAACAUUCCGAGGGGACCGUCCCGUCUGUAAUGGCGAAUGGGACCCA [C64G G67U] | 0.365
35 | GGCCGGCAUGGUCCCAGCCUCCUCGCUGGCGCCGGCUGGGCAACAUUCCGAGGGGACCGUCCCGUCCGUAAUGGCGAAUGGGACCCA [C64G G67C] | 0.332
36 | GGCCGGCAUGGUCCCAGCCUCCUCGCUGGCGCCGGCUGGGCAACAUUCCGAGGGGACCGUCCCUUCAGUAAUGGCGAAUGGGACCCA [C64U G67A] | 0.92
37 | GGCCGGCAUGGUCCCAGCCUCCUCGCUGGCGCCGGCUGGGCAACAUUCCGAGGGGACCGUCCCUUCUGUAAUGGCGAAUGGGACCCA [C64U G67U] | 0.804
38 | GGCCGGCAUGGUCCCAGCCUCCUCGCUGGCGCCGGCUGGGCAACAUUCCGAGGGGACCGUCCCGUCGGUAAUGGCGAAUGUGACCCA [C64G G81U] | 0.312
39 | GGCCGGCAUGGUCCCAGCCUCCUCGCUGGCGCCGGCUGGGCAACAUUCCGAGGGGACCGUCCCGUCGGUAAUGGCGAAUGAGACCCA [C64G G81A] | 0.222
40 | GGCCGGCAUGGUCCCAGCCUCCUCGCUGGCGCCGGCUGGGCAACAUUCCGAGGGGACCGUCCCGUCGGUAAUGGCGAAUCGGACCCA [C64G G80C] | 0.305
41 | GGCCGGCAUGGUCCCAGCCUCCUCGCUGGCGCCGGCUGGGCAACAUUCCGAGGGGACCGUCCCGUCGGUAAUGGCGAAUUGGACCCA [C64G G80U] | 0.443
42 | GGCCGGCAUGGUCCCAGCCUCCUCGCUGGCGCCGGCUGGGCAACAUUCCGAGGGGACCGUCCCGUCGGUAAUGGCGAAUAGGACCCA [C64G G80A] | 0.641
43 | GGCCGGCAUGGUCCCAGCCUCCUCGCUGGCGCCGGCUGGGCAACAUUCCGAGGGGACCGUCCCUUCGGUAAUCGCGAAUGGGACCCA [C64U G73C] | 0.601
44 | GGCCGGCAUGGUCCCAGCCUCCUCGCUGGCGCCGGCUGGGCAACAUUCCGAGGGGACCGUCCCUUCGGUAAUUGCGAAUGGGACCCA [C64U G73U] | 0.345

Row | Variant | self-cleavage
45 | GGCCGGCAUGGUCCCAGCCUCCUCGCUGGCGCCGGCUGGGCAACAUUCCGAGGGGACCGUCCCUUGGGUAAUGGCGAAUGGGACCCA [C64U C66G] | 0.748
46 | GGCCGGCAUGGUCCCAGCCUCCUCGCUGGCGCCGGCUGGGCAACAUUCCGAGGGGACCGUCCCUUCGGUAAUGACGAAUGGGACCCA [C64U G74A] | 0.535
47 | GGCCGGCAUGGUCCCAGCCUCCUCGCUGGCGCCGGCUGGGCAACAUUCCGAGGGGACCGUCCCUUCGGUAAUGGCGAAUGGGACCCG [C64U A87G] | 1.04
48 | GGCCGGCAUGGUCCCAGCCUCCUCGCUGGCGCCGGCUGGGCAACAUUCCGAGGGGACCGUCCCUUCGGUAAUGGCGAAUGGGACCCA [C64U] | 0.995
49 | GGCCGGCAUGGUCCCAGCCUCCUCGCUGGCGCCGGCUGGGCAACAUUCCGAGGGGACCGUCCCUUCGGCAAUGGCGAAUGGGACCCA [C64U U69C] | 1.17
50 | GGCCGGCAUGGUCCCAGCCUCCUCGCUGGCGCCGGCUGGGCAACAUUCCGAGGGGACCGUCCCUUCGGGAAUGGCGAAUGGGACCCA [C64U U69G] | 1.07
51 | GGCCGGCAUGGUCCCAGCCUCCUCGCUGGCGCCGGCUGGGCAACAUUCCGAGGGGACCGUCCCUUCGGUAAUGGCGAAUGCGACCCA [C64U G81C] | 0.315
52 | GGCCGGCAUGGUCCCAGCCUCCUCGCUGGCGCCGGCUGGGCAACAUUCCGAGGGGACCGUCCCUUCGGUAAUGGCGAAUGUGACCCA [C64U G81U] | 0.313
53 | GGCCGGCAUGGUCCCAGCCUCCUCGCUGGCGCCGGCUGGGCAACAUUCCGAGGGGACCGUCCCUUCGGUAAUGGCGAAUGAGACCCA [C64U G81A] | 0.318
54 | GGCCGGCAUGGUCCCAGCCUCCUCGCUGGCGCCGGCUGGGCAACAUUCCGAGGGGACCGUCCCGUCGGUAACGGCGAAUGGGACCCA [C64G U72C] | 0.364
55 | GGCCGGCAUGGUCCCAGCCUCCUCGCUGGCGCCGGCUGGGCAACAUUCCGAGGGGACCGUCCCGCCGGUAAUGGCGAAUGGGACCCA [C64G U65C] | 0.199
56 | GGCCGGCAUGGUCCCAGCCUCCUCGCUGGCGCCGGCUGGGCAACAUUCCGAGGGGACCGUCCCGGCGGUAAUGGCGAAUGGGACCCA [C64G U65G] | 0.943
57 | GGCCGGCAUGGUCCCAGCCUCCUCGCUGGCGCCGGCUGGGCAACAUUCCGAGGGGACCGUCCCUUCGAUAAUGGCGAAUGGGACCCA [C64U G68A] | 0.821
58 | GGCCGGCAUGGUCCCAGCCUCCUCGCUGGCGCCGGCUGGGCAACAUUCCGAGGGGACCGUCCCUUCGCUAAUGGCGAAUGGGACCCA [C64U G68C] | 0.305
59 | GGCCGGCAUGGUCCCAGCCUCCUCGCUGGCGCCGGCUGGGCAACAUUCCGAGGGGACCGUCCCGUCGGUAAUGGCGAAUGGGACGCA [C64G C85G] | 0.872
60 | GGCCGGCAUGGUCCCAGCCUCCUCGCUGGCGCCGGCUGGGCAACAUUCCGAGGGGACCGUCCCUUCGGUAAUGGCGAAUGGGACACA [C64U C85A] | 1.25
61 | GGCCGGCAUGGUCCCAGCCUCCUCGCUGGCGCCGGCUGGGCAACAUUCCGAGGGGACCGUCCCGUCGGAAAUGGCGAAUGGGACCCA [C64G U69A] | 1.01
62 | GGCCGGCAUGGUCCCAGCCUCCUCGCUGGCGCCGGCUGGGCAACAUUCCGAGGGGACCGUCCCUUCGGUAAUGGCGAAUGGGAUCCA [C64U C84U] | 0.785
63 | GGCCGGCAUGGUCCCAGCCUCCUCGCUGGCGCCGGCUGGGCAACAUUCCGAGGGGACCGUCCCUUCGGUAAUGGCGAAUGGGAGCCA [C64U C84G] | 0.869
64 | GGCCGGCAUGGUCCCAGCCUCCUCGCUGGCGCCGGCUGGGCAACAUUCCGAGGGGACCGUCCCUUCGGUAAUGGCGAAUGGGAACCA [C64U C84A] | 0.801
